The target in test [1] is T1, human TNFR2 expressed on cells (human, UniProt P20333 23-461).
T1 construct: whole, on cells; also called hTNFR2 (cell); CHO-TNFR2
T1 sequence (looked up): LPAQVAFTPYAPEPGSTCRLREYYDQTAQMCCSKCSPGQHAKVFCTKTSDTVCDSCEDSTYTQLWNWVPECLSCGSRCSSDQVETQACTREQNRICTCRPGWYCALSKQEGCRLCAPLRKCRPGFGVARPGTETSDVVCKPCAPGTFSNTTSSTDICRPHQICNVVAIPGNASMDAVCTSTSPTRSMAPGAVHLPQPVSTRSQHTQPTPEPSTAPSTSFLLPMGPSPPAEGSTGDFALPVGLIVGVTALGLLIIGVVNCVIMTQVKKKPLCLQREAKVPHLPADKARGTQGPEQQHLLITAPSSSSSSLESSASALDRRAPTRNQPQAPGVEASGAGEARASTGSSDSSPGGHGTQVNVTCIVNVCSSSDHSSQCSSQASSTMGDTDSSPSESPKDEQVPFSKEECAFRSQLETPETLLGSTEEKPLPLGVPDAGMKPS
Briefly: flow cytometry, cell-expressed human TNFR2. In general terms: In flow cytometry, cells or beads pass a laser one at a time.

Test [2] has as its target T1, human TNFR2 expressed on cells. Briefly: cell-based or functional assay.
The next test deals with T2, death receptor 6 (DR6) (UniProt O75509 42-349, limits assumed).
T2 sequence (looked up): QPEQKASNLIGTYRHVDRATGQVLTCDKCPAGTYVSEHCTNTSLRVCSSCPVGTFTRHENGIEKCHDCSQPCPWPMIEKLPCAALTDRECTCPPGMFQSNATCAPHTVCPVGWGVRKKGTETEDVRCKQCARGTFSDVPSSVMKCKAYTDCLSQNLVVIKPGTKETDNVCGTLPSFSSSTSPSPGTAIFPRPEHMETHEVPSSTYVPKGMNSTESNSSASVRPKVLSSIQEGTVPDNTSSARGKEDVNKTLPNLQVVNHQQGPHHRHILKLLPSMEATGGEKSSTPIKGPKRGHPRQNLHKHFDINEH
The test is described as follows: ELISA on coated DR6, OD 650 nm. The protocol:
(§1) To test binding to TNFR family members, target proteins were coated on ELISA plates at 1 μg/mL at 4° C. overnight. Plates were washed, blocked, and antibodies were added at indicated concentrations for 1 hour at RT. Positive control antibodies for each protein were used at ˜1 ug/mL. Antibodies were washed and detected with anti-human IgG HRP for 1 hour. Assay was developed using TMB substrate for 10 minutes. For cell-binding, human CD4+ T cells purified from buffy coats were cultured in flat-bottom plates with anti-CD3/CD28 for 24 hours. Cells were harvested and stained for viability, CD4, CD25 and FOXP3. Test antibody staining was detected using anti-human IgG APC. Binding titration of test antibodies was evaluated on CD4+CD25hiFOXP3+ regulatory T cells and plotted as percent binding.

For test [3], the target named is T3, human TNFR2-His tagged protein (soluble) (human, UniProt P20333 23-257).
T3 construct: also called hTNFR2 (soluble); soluble TNFR2-His; not shown: His tag
T3 sequence (looked up): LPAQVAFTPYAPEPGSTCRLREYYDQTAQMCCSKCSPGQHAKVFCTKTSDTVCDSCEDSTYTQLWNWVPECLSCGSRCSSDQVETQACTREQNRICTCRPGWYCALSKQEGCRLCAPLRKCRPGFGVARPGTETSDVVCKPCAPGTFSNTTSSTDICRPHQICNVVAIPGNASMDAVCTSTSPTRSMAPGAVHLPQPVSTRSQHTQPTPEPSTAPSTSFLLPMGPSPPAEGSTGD
Briefly: ELISA on coated hTNFR2-His, OD 450 nm.

Test [4] has as its target T4, herpesvirus entry mediator (HVEM) (UniProt Q92956 39-202, limits assumed).
T4 sequence (looked up): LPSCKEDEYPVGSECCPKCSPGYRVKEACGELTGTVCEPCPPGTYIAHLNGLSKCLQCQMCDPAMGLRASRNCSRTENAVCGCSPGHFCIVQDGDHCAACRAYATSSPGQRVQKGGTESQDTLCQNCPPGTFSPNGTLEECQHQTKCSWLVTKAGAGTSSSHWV
The test is described as follows: ELISA on coated HVEM, OD 650 nm. The protocol: as §1

The target in test [5] is T1, human TNFR2 expressed on cells. Briefly: blocking of biotinylated TNF-α on TNFR2-CHO cells, flow cytometry. The protocol:
TNFR2-overexpressing CHO cells were plated at 100,000 cells per well. Cells were incubated with the indicated antibodies for 30 minutes on ice. […] Cells were analyzed using Cytoflex or MACSQuant flow cytometer. Assay was repeated twice.

The target is the same in test [6]. Briefly: cell binding on TNFR2-overexpressing (OE) cells.
Test [7] has as its target T5, cynomolgus TNFR2-His tagged protein (cynomolgus, UniProt A0A2K5VET2 132-366).
T5 construct: also called Cyno TNFR2; cynomolgus TNFR2 protein; not shown: His tag
T5 sequence: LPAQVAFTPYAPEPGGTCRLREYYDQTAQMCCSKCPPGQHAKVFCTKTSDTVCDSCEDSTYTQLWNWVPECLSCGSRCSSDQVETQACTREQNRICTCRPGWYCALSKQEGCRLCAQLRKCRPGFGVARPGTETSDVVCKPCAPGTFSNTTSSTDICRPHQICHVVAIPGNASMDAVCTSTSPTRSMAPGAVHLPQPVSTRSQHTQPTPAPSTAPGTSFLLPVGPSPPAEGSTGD
Briefly: ELISA on coated cynoTNFR2-His, OD 450 nm.

Test [8] concerns the target T5, cynomolgus TNFR2-His tagged protein. Briefly: ELISA, cynomolgus TNFR2.
A further test has as its target CD40 (UniProt P25942 21-193, limits assumed). Briefly: ELISA on coated CD40, OD 650 nm. The protocol:
as §1
(An ELISA detects its analyte on a solid surface through an enzyme-linked reagent.)

The target of another test is T6, TNFR-Fc (UniProt P20333 23-257, limits assumed).
T6 construct: Printed only as TNFR-Fc; not shown: Fc part
T6 sequence (looked up): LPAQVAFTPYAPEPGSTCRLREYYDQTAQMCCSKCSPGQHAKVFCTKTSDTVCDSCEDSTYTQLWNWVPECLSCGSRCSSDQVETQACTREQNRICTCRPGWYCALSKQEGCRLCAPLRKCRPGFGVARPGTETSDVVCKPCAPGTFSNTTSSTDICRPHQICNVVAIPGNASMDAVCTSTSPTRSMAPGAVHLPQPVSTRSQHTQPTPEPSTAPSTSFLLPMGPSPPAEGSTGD
Briefly: TNF-α blocking ELISA (soluble).

In test [9] the target is T7, TNFR2 (as used in the Octet measurement) (UniProt P20333 23-257, limits assumed).
T7 construct: Probably human soluble TNFR2; the legend says only TNFR2
T7 sequence (looked up): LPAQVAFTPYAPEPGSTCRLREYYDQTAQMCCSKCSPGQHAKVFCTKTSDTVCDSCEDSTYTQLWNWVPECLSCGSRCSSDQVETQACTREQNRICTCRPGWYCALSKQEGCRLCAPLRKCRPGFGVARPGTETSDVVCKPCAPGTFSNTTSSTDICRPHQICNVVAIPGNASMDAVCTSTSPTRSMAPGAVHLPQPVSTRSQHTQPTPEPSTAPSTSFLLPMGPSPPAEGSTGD
The test is described as follows: Octet (BLI), monovalent binding. Background: In BLI a coated tip is dipped into the sample, and binding shifts an interference pattern.

Sequence of CD40 (P25942 21-193 limits assumed): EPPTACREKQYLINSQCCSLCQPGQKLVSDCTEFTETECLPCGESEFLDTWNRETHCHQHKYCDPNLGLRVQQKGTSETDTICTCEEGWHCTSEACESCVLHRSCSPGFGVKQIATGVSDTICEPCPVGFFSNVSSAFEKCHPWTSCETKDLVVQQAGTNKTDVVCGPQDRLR

B1: humanized antibody h600-25-71 (antibody, V domains shown)
VH: EVQLVESGGGLVQPGGSLRLSCAASGIDLSSYAMGWVRQAPGKGLEWVGDISTSGNAYYATWVKGRFTISRDNSKNTLYLQMNSLRAEDTAVYYCARADYGGETYAFDPWGQGTLVTVSS
VL: DIQMTQSPSSLSASVGDRVTITCQASQSISSYLNWYQQKPGKAPKLLIYSASTLASGVPSRFSGSGSGTDFTLTISSLQPEDFATYYCQQGYSDSNIDNVFGGGTKVEIK
notes: also called Ab 25-71; clone 25-71
As a reminder, the EC50 is the concentration that produces a half-maximal response. A high value points to lower potency in that assay. By EC50 (read off the curve) is commonly meant the midpoint of the concentration-response curve. A high value points to weaker potency. By IC50 is commonly meant the midpoint of a concentration-inhibition curve. In general, Kd refers to the constant that tells how readily two partners part at equilibrium. Read a low Kd as a tighter complex. What is called koff is the first-order rate constant of dissociation. What is called kon is the second-order rate constant of association. B1: the EC50 in test [1] was 0.242 nM; in test [8], 0.123 nM. Moreover, the “ADCC EC50 (reporter line)” value in [2] is 1.14 nM. Moreover, in test [2], the “ADCP EC50” value is 0.71 nM. The binding result (with death receptor 6 (DR6); in test [4]; with CD40) was “no binding (tested: about 67 nM)” throughout. The concentration for a half-maximal effect (EC50 (read off the curve)) is approximately 0.2 nM in test [3] and approximately 0.1 nM in test [7]. Also, the IC50 came out at 0.149 nM in test [5] and 1.96 nM with TNFR-Fc. Moreover, binding in test [6] was characterised by a dissociation constant (Kd) of 0.12 nM. In test [9], this molecule had a koff of 0.000553 s⁻¹. In test [9], this molecule displayed an on-rate constant (kon) of 358000 M⁻¹ s⁻¹.

These data come from patent publication US20220372154A1 (APEXIGEN, published 2022).
